Experimental data from US20180071403A1 (Daiichi Sankyo, published 2018).

T1: human B7-H3 variant 1 (human, UniProt Q5ZPR3 27-534)
T1 construct: also called 4Ig-B7-H3
T1 sequence: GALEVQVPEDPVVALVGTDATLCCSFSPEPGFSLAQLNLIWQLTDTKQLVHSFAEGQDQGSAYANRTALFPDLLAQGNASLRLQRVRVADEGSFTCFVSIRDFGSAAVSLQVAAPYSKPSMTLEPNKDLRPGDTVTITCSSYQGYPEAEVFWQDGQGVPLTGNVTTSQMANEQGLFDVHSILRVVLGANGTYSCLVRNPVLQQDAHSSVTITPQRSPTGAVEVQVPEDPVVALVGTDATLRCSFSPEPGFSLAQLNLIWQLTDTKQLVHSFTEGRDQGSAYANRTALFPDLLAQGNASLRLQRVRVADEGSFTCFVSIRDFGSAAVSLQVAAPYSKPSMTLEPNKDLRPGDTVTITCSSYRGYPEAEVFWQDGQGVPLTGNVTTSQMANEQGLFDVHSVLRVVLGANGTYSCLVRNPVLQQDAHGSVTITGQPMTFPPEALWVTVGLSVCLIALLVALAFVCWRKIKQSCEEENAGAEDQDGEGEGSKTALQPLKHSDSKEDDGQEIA

T2: CD30 (UniProt P28908 19-595, limits assumed)
T2 sequence (looked up): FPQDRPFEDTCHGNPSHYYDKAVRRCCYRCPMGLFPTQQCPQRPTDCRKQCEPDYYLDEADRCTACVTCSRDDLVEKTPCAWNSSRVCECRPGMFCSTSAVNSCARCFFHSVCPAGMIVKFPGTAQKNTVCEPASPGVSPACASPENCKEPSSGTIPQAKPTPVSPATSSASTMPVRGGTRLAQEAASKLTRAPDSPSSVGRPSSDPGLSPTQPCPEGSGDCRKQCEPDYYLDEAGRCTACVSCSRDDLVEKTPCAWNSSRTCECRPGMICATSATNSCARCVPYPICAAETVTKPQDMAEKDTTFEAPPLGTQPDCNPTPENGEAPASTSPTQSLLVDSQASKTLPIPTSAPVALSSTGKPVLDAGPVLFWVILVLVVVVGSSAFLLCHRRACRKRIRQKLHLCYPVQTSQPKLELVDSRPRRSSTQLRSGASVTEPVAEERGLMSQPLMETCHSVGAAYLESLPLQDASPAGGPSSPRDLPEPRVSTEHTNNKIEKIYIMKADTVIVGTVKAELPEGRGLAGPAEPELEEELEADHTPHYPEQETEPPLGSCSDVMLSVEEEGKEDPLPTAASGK

B1: M30 antibody (antibody, mouse IgG2a, kappa, V domains shown)
VH: EVQLQQSGPELVKPGASVKMSCKASGYTFTNYVMHWVKQKPGQGLEWIGYINPYNDDVKYNEKFKGKATQTSDKSSSTAYMELSSLTSEDSAVYYCARWGYYGSPLYYFDYWGQGTTLTVSS
VL: QIVLSQSPTILSASPGEKVTMTCRASSRLIYMHWYQQKPGSSPKPWIYATSNLASGVPARFSGSGSGTSYSLTISRVEAEDAATYYCQQWNSNPPTFGTGTKLELKR
notes: Mouse monoclonal anti-B7-H3 antibody from hybridoma M30
B2: Antibody-drug conjugate (7) (antibody, V domains shown)
VH: QIQLQQSGPEVVKPGASVKISCKASGYTFTDYYITWVKQKPGQGLEWIGWIYPGSGNTKYNEKFKGKATLTVDTSSSTAFMQLSSLTSEDTAVYFCANYGNYWFAYWGQGTQVTVSA
VL: DIVLTQSPASLAVSLGQRATISCKASQSVDFDGDSYMNWYQQKPGQPPKVLIYAASNLESGIPARFSGSGSGTDFTLNIHPVEEEDAATYYCQQSNQDPWTFGGGTKLEIKR
modifications: drug-linker -(Succinimid-3-yl-N)-CH2CH2CH2CH2CH2-C(=O)-DGGFG-NH-CH2CH2CH2-C(=O)-(NH-DX) (exatecan) bound by thioether at reduced hinge disulfide cysteines (positions not given); average 4.6 drug molecules per antibody
B3: Antibody-drug conjugate (24) (antibody, V domains shown)
VH: B2 VH
VL: B2 VL
modifications: drug-linker -(Succinimid-3-yl-N)-CH2CH2CH2CH2CH2-C(=O)-DGGFG-(NH-DX) (exatecan) bound by thioether at reduced hinge disulfide cysteines (positions not given); average 2.9 drug molecules per antibody
B4: Antibody-drug conjugate (8) (antibody, V domains shown)
VH: B2 VH
VL: B2 VL
modifications: drug-linker -(Succinimid-3-yl-N)-CH2CH2CH2CH2CH2-C(=O)-DGGFG-NH-CH2CH2CH2-C(=O)-(NH-DX) (exatecan) bound by thioether at reduced hinge disulfide cysteines (positions not given); average 7.9 drug molecules per antibody
B5: Antibody-drug conjugate (25) (antibody, V domains shown)
VH: B2 VH
VL: B2 VL
modifications: drug-linker -(Succinimid-3-yl-N)-CH2CH2CH2CH2CH2-C(=O)-DGGFG-(NH-DX) (exatecan) bound by thioether at reduced hinge disulfide cysteines (positions not given); average 4.8 drug molecules per antibody
B6: Antibody-drug conjugate (10) (antibody, V domains shown)
VH: EVQLVQSGAEVKKPGSSVKVSCKASGYTITDSNIHWVRQAPGQSLEWIGYIYPYNGGTDYNQKFKNRATLTVDNPTNTAYMELSSLRSEDTAFYYCVNGNPWLAYWGQGTLVTVSS
VL: DIQLTQSPSTLSASVGDRVTITCRASQSLDNYGIRFLTWFQQKPGKAPKLLMYAASNQGSGVPSRFSGSGSGTEFTLTISSLQPDDFATYYCQQTKEVPWSFGQGTKVEVKR
modifications: drug-linker -(Succinimid-3-yl-N)-CH2CH2CH2CH2CH2-C(=O)-DGGFG-NH-CH2CH2CH2-C(=O)-(NH-DX) (exatecan) bound by thioether at reduced hinge disulfide cysteines (positions not given); average 6.6 drug molecules per antibody
B7: Antibody-drug conjugate (6) (antibody, human IgG1, kappa, V domains shown)
VH: QVQLVQSGAEVKKPGSSVKVSCKASGYTFTNYVMHWVRQAPGQGLEWMGYINPYNDDVKYNEKFKGRVTITADESTSTAYMELSSLRSEDTAVYYCARWGYYGSPLYYFDYWGQGTLVTVSS
VL: EIVLTQSPATLSLSPGERATLSCRASSRLIYMHWYQQKPGQAPRPLIYATSNLASGIPARFSGSGSGTDFTLTISSLEPEDFAVYYCQQWNSNPPTFGQGTKVEIKR
modifications: drug-linker -(Succinimid-3-yl-N)-CH2CH2CH2CH2CH2-C(=O)-DGGFG-NH-CH2CH2CH2-C(=O)-(NH-DX) (exatecan) bound by thioether at reduced hinge disulfide cysteines (positions not given); average 6.2 drug molecules per antibody
B8: Antibody-drug conjugate (23) (antibody, human IgG1, kappa, V domains shown)
VH: B7 VH
VL: B7 VL
modifications: drug-linker -(Succinimid-3-yl-N)-CH2CH2CH2CH2CH2-C(=O)-DGGFG-(NH-DX) (exatecan) bound by thioether at reduced hinge disulfide cysteines (positions not given); average 6.6 drug molecules per antibody

Columns and labels:
[1] = molecular target: T1, human B7-H3 variant 1; test: flow cytometry, M30 at 10 µg/mL on CCRF-CEM clones transfected with B7-H3 variant 1, fluorescein-labelled anti-mouse IgG
Experimental: Flow cytometry was used for confirming B7-H3 expression in each recovered clone. Specifically, each recovered clone was washed twice with PBS containing 5% FBS, thereafter suspended by the addition of PBS containing 5% FBS and 10 μg/mL M30, and left standing at 4° C. for 30 minutes. […] The clone was washed twice with PBS containing 5% FBS, thereafter resuspended in PBS containing 5% FBS, and detected by using a flow cytometer (FC500: Beckman Coulter, Inc.).

[2] = molecular target: T2, CD30; test: cell-based or functional assay
[3] = molecular target: CD33 (UniProt P20138 18-364, limits assumed); test: cell-based or functional assay
[4] = molecular target: T1, human B7-H3 variant 1; test: cell-based or functional assay

Sequence of CD33 (P20138 18-364 limits assumed): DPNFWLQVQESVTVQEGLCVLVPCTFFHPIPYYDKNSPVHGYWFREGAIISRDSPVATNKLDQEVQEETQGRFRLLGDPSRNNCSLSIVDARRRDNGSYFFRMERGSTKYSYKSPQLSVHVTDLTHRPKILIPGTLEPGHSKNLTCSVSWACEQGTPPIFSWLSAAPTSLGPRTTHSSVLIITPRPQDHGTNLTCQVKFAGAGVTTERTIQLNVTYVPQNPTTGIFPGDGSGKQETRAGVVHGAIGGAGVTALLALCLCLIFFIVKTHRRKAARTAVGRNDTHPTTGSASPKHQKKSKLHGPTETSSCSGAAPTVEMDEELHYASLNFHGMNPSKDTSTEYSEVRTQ

| Binder | IC50, anticellular effect (cell growth inhibition, CellTiter-Glo) on SR cells [2] [nM] | also measured |
| --- | --- | --- |
| B1 | – | binding result [1]: binds |
| B2 | < 0.01 | – |
| B3 | < 0.01 | – |
| B4 | < 0.01 | – |
| B5 | < 0.01 | – |
| B6 | – | IC50, cytotoxic effect (cell growth inhibition, CellTiter-Glo) on HL-60 cells [3]: < 1 nM |
| B7 | – | IC50, anticellular effect (cell growth inhibition, CellTiter-Glo) on CEM_V1_3.1_2 cells [4]: < 0.1 nM |
| B8 | – | IC50, anticellular effect (cell growth inhibition, CellTiter-Glo) on CEM_V1_3.1_2 cells [4]: < 0.1 nM |
